Data published in the supplement of paper PMC9170038.

System: MS2 coat protein
Test: apparent KD of MS2 coat protein; designed switch direction (-1 OFF switch, 1 ON switch): -1; higher = weaker reporter binding
Outline: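 Each step of the titration lasted 0.8–1.5 h at the lowest concentration and 10–20 min at the highest. The protein, SNAP-549-labelled MS2 coat protein, went from 0.7 or 1.5 nM doubling to 3 µM over RNA switches transcribed on Illumina chips by stalled E. coli RNA polymerase. Normalised cluster fluorescence was curve-fitted, and the per-design median over clusters is given as apparent KD.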

[1] = input ligand: microRNA oligo, concentration not stated
[2] = Eterna round: R95, input ligand: FMN 200 uM
[3] = Eterna round: R95, input ligand: microRNA oligo, concentration not stated
[4] = Eterna round: R95, input ligand: none

ACGAUGAUCGAAAAGUGUAAACUAACAUGAGGAUCACCCAUGUAGGAUAUGGCUACGAAAAGUAGUCAGAAGGGCAUGUCAUCA [3 Av mod - 2] (Eterna round: R96, puzzle: Exclusion NG 3)
apparent KD of MS2 coat protein (input ligand: FMN 200 uM): 24 nM
apparent KD of MS2 coat protein [1]: 13.2 nM
apparent KD of MS2 coat protein (input ligand: none): 20.3 nM

ACGCAUUGCCUUUGGUAGUGCGUAACAUGAGGAUCACCCAUGUAGGAUAUGGUAGGCUUUGCUUACCAGAAGGACAUAAUAAUA [Mat - Exclusion NG 3 - Mod of JL - D1] (Eterna round: R96, puzzle: Exclusion NG 3)
apparent KD of MS2 coat protein (input ligand: FMN 200 uM): 54.2 nM
apparent KD of MS2 coat protein [1]: 22.7 nM
apparent KD of MS2 coat protein (input ligand: none): 26.6 nM

ACGCGUGGCUAGGAUAUGCAGCUAUCUGGCCAGGCAGAAGGAGCCACAUGAGGAUCACCCAUGUGGUGAUCCUC [eternacac ex6r4 sub3] (Eterna round: R97, puzzle: Exclusion 6)
apparent KD of MS2 coat protein (input ligand: FMN 200 uM): 12.1 nM
apparent KD of MS2 coat protein (input ligand: none): 11.9 nM

ACGGCUGAAGGAUAUGCAGUGACCACAAAGGUAUGACUAUCACAUGAGGAUCACCCAUGUAGAAGGUCGGCGCC [Eternabot (L2) Solution 29] (Eterna round: R97, puzzle: Exclusion 2)
apparent KD of MS2 coat protein (input ligand: FMN 200 uM): 13.6 nM
apparent KD of MS2 coat protein (input ligand: none): 14.4 nM

ACGGUGGUCCGAGAACAUGAGGAUCACCCAUGUGACAAAACCAAGGAUAUAGAAGGACCGCCCGACUAGAAGGUGGAAAGAAAA [Aresonen] (Eterna round: R96, puzzle: Exclusion NG 3)
apparent KD of MS2 coat protein (input ligand: FMN 200 uM): 101 nM
apparent KD of MS2 coat protein [1]: 73.3 nM
apparent KD of MS2 coat protein (input ligand: none): 117 nM

ACGUAGGUAGUUAGGAUAUUUAGUAUAUUUACAGUGAAGAAGGAACAUGAGGAUCACCCAUGUAGUGGUGUCCA [Eternabot (L1) Solution 68] (Eterna round: R97, puzzle: Brourd's mod of Exclusion 4)
apparent KD of MS2 coat protein (input ligand: FMN 200 uM): 1200 nM
apparent KD of MS2 coat protein (input ligand: none): 3180 nM

ACGUGAUAUCUGUCGGUGGACAUGAGGAUCACCCAUGUAAGCUUUUUGCCCGUCUUAUAACCCGGUGACAGACCUUC [Orlequla] (puzzle: Sensor v3, turn-off variant 1)
apparent KD of MS2 coat protein [2]: 32.4 nM
apparent KD of MS2 coat protein [3]: 340 nM
apparent KD of MS2 coat protein [4]: 53.6 nM

ACUAGAUGAGGAUAUGCAUAUUUUCGUGUUCUUCUAGGUUAACAUGAGGAUCACCCAUGUAGAAGGCGUCUAUU [Exclusion 2 - 23] (puzzle: Exclusion 2)
apparent KD of MS2 coat protein [3]: 18.6 nM

ACUCAGUGAGGAUAUCGCCAGAGAGCCACAACGGCCUCUGAUGAGAAGGCACAUGAGGAUCACCCAUGUAAGCA [EX4 C.2] (Eterna round: R97, puzzle: Exclusion 4)
apparent KD of MS2 coat protein (input ligand: FMN 200 uM): 45.4 nM
apparent KD of MS2 coat protein (input ligand: none): 252 nM

ACUCGACAUGAGGAUCACCCAUGUGAGGAUAUGGCCUGUAUGGCGUGAGCUGGCUAAAUCAGAAGGCGCGUGGG [salish99_ex1_r4_049] (Eterna round: R97, puzzle: Exclusion 1)
apparent KD of MS2 coat protein (input ligand: FMN 200 uM): 222 nM
apparent KD of MS2 coat protein (input ligand: none): 194 nM

ACUCGACAUGAGGAUCACCCAUGUGAGGAUAUGGCCUGUAUGGCGUGAGCUGGCUCAAUAAGAAGGCGCGUGGG [salish99_ex1_r4_051] (Eterna round: R97, puzzle: Exclusion 1)
apparent KD of MS2 coat protein (input ligand: FMN 200 uM): 235 nM
apparent KD of MS2 coat protein (input ligand: none): 188 nM

ACUCGACAUGAGGAUCACCCAUGUGAGGAUAUGGCCUGUUUGGCGUGAGCUGGCUCUGUCAGAAGGCGCGUGGG [salish99_ex1_r4_045] (Eterna round: R97, puzzle: Exclusion 1)
apparent KD of MS2 coat protein (input ligand: FMN 200 uM): 138 nM
apparent KD of MS2 coat protein (input ligand: none): 75.5 nM

ACUGGUCGAGGAUAUACGAUCGUGCUUCGGCACGUAAGAUCACAUGAGGAUCACCCAUGUAGAAGGCGACCAGU [Mod 4 - Jieux - Exclusion 2] (Eterna round: R97, puzzle: Exclusion 2)
apparent KD of MS2 coat protein (input ligand: FMN 200 uM): 246 nM
apparent KD of MS2 coat protein (input ligand: none): 35.3 nM

ACUUACUGAGGAUAUACAUAGAUUUACAUGAGGAUCACCCAUGUUCCUCUAUGUAUAAAUGUAGAAGGCAGAAGAU [Mat - Exclusion 5 - JL Mod - D55] (Eterna round: R97, puzzle: Exclusion 5)
apparent KD of MS2 coat protein (input ligand: FMN 200 uM): 64.2 nM
apparent KD of MS2 coat protein (input ligand: none): 17.8 nM

ACUUAUAGAGGAUAUACAGAAUAUUACAUGAGGAUCACCCAUGUUCUUCAAUGUAUAUAAGUAGAAGGCUAAGGAU [Mat - Exclusion 5 - JL Mod - D4] (Eterna round: R97, puzzle: Exclusion 5)
apparent KD of MS2 coat protein (input ligand: FMN 200 uM): 183 nM
apparent KD of MS2 coat protein (input ligand: none): 25.4 nM

ACUUAUAGAGGAUAUACAGAAUAUUACAUGAGGAUCACCCAUGUUCUUCAAUGUAUAUUUGUAGAAGGCUAAGGAA [EX-5 Malc#7] (Eterna round: R96, puzzle: Exclusion 5)
apparent KD of MS2 coat protein [1]: 46.6 nM

ACUUAUAGAGGAUAUACAGAAUAUUACAUGAGGAUCACCCAUGUUCUUCAAUGUAUAUUUGUAGAAGGCUAAGGAA [EX-5 Malc#7] (puzzle: Exclusion 5)
apparent KD of MS2 coat protein [2]: 192 nM
apparent KD of MS2 coat protein [3]: 45.6 nM
apparent KD of MS2 coat protein [4]: 40.6 nM

ACUUAUAGAGGAUAUACAGUAUAUUACAUGAGGAUCACCCAUGUUCUUCAAUGUAUAUAUGUAGAAGGCUAAGGAA [EX-5 Malc#6] (puzzle: Exclusion 5)
apparent KD of MS2 coat protein [3]: 183 nM

ACUUAUUGAGGAUAUACAGAAAAUUACAUGAGGAUCACCCAUGUUCUUCAAUGUAUAUAUGUAGAAGGCAGAAGAU [Mat - Exclusion 5 - JL Mod - D16] (Eterna round: R97, puzzle: Exclusion 5)
apparent KD of MS2 coat protein (input ligand: FMN 200 uM): 48.9 nM
apparent KD of MS2 coat protein (input ligand: none): 14.5 nM

ACUUAUUGAGGAUAUACAUUAAAUUACAUGAGGAUCACCCAUGUUCUUCAAUGUAUAUAUGUAGAAGGCAAAAGAG [Mat - Exclusion 5 - JL Mod - D22] (Eterna round: R97, puzzle: Exclusion 5)
apparent KD of MS2 coat protein (input ligand: FMN 200 uM): 26.5 nM
apparent KD of MS2 coat protein (input ligand: none): 14.4 nM

ACUUAUUGAGGAUAUACAUUAAAUUACAUGAGGAUCACCCAUGUUCUUCAAUGUAUAUAUGUAGAAGGCAGAAGAU [Mat - Exclusion 5 - JL Mod - D20] (Eterna round: R97, puzzle: Exclusion 5)
apparent KD of MS2 coat protein (input ligand: FMN 200 uM): 18.2 nM
apparent KD of MS2 coat protein (input ligand: none): 14.4 nM

ACUUAUUGAGGAUAUACAUUGAUUAACAUGAGGAUCACCCAUGUACAAACAUGUAUUUAUGUAGAAGGCAGAAGAA [JR_Ex5_Sub067] (Eterna round: R97, puzzle: Exclusion 5)
apparent KD of MS2 coat protein (input ligand: FMN 200 uM): 14.4 nM
apparent KD of MS2 coat protein (input ligand: none): 13.4 nM

ACUUUUAGUGGUCAAACUCACAUGAGGAUCACCCAUGUUUACAGGCUUAGGUGCUUGUCUUAUACUAAGGUUUACCG [Eternabot (L1) Solution 44] (Eterna round: R97, puzzle: Sensor, turn-off variant 1)
apparent KD of MS2 coat protein (input ligand: FMN 200 uM): 96.9 nM
apparent KD of MS2 coat protein (input ligand: none): 122 nM

AGAAAUGCCCAUGGCCACAAGCUCUUUGCUUGUCUUACUACAUGAGGAUCACCCAUGUAACAUGGGCUCCUGAUAAU [Been] (puzzle: Sensor v3, turn-off variant 2)
apparent KD of MS2 coat protein [2]: 12.2 nM
apparent KD of MS2 coat protein [3]: 9.19 nM
apparent KD of MS2 coat protein [4]: 11.3 nM

AGAAAUGCCCAUGGCCGCAAGCUUUCUGCUUGUCUUACCACAUGAGGAUCACCCAUGUGACAUGGGCUCCUUAUAAU [Soralaer] (puzzle: Sensor v3, turn-off variant 2)
apparent KD of MS2 coat protein [2]: 14.4 nM
apparent KD of MS2 coat protein [3]: 11 nM
apparent KD of MS2 coat protein [4]: 13.2 nM

AGAACUCUAGUAGGAUAUGUCGGAUAUGUUGUUGAGGUUCACCCAACGACGUCAAUGACAGAAGGACAGAAGGACUCCUGUUCA [pwkr exNG2 2xFMN 1xF5.8] (Eterna round: R96, puzzle: Exclusion NG 2)
apparent KD of MS2 coat protein (input ligand: FMN 200 uM): 1020 nM
apparent KD of MS2 coat protein [1]: 3670 nM
apparent KD of MS2 coat protein (input ligand: none): 711 nM

AGAAGUAGGAACCGAUCCUACAUGAGGAUCACCCAUGUAGCAAGACGUGCACGCGAAGCUCGUCAGACUACCAGAUG [salish99_TOv1_r3_021] (puzzle: Sensor v3, turn-off variant 1)
apparent KD of MS2 coat protein [2]: 558 nM
apparent KD of MS2 coat protein [3]: 399 nM
apparent KD of MS2 coat protein [4]: 531 nM

AGAAGUAGUAACCGAUCCUACAUGAGGAUCACCCAUGUAGCGGGACGUGCACGCGAAGCUCGUCAGACUACCAGAUG [salish99_TOv1_r3_024] (puzzle: Sensor v3, turn-off variant 1)
apparent KD of MS2 coat protein [2]: 27.2 nM
apparent KD of MS2 coat protein [3]: 26.7 nM
apparent KD of MS2 coat protein [4]: 28.6 nM

AGAGAAUACUCAGGAUAUCUGAAUAGAUAGAGAAGAGAAGGGAGACAUGAGGAUCACCCAUGUGAAGUCUUGAGGCUGCAUGGA [Prohibition 24 - Jieux - Exclusion NG 1] (Eterna round: R96, puzzle: Exclusion NG 1)
apparent KD of MS2 coat protein (input ligand: FMN 200 uM): 165 nM
apparent KD of MS2 coat protein [1]: 85.6 nM
apparent KD of MS2 coat protein (input ligand: none): 209 nM

AGAGAAUACUCAGGAUAUGUGAAUAGAUAGAGAACAGAAGGGAGACAUGAGGAUCACCCAUGUGAAGUCUUGAGGCUGCAUGGA [Prohibition 23 - Jieux - Exclusion NG 1] (Eterna round: R96, puzzle: Exclusion NG 1)
apparent KD of MS2 coat protein (input ligand: FMN 200 uM): 403 nM
apparent KD of MS2 coat protein [1]: 408 nM
apparent KD of MS2 coat protein (input ligand: none): 337 nM
